Series [1] can be described thus: Zeta potential. It is filed as physicochemical. The note with it: 0.2 mg·mL^−1 in 10 mM Tris-HCl, pH 8.0, 100 mM NaCl; 25 °C; mean of triplicate ± SD. The procedure:
Zeta potential and Hydrodynamic Diameter measurements were performed at room temperature (or 25 °C) on a Zetasizer Nano instrument (Malvern® ZS model BI-900, Worcestershire, UK). A 700 µL Malvern® cuvette (model DTS1061) was used for the analysis. The measurements were conducted, utilizing monochromatic light scattering (10 mW Ne laser, λ = 632.4 nm), with the light intensity measured at a 90° angle. Zeta potential (z) were carried out at 0.2 mg·mL^−1 of NP, NP-OH, NP-NH2, NP-Lun-EN, and NP-Lun-EC dispersed in a 10 mM Tris-HCl buffer, pH 8.0, containing 100 mM NaCl.

In series [2] the test system is Staphylococcus aureus. The experiment in a line: Bacterial cell death kinetics (time-kill). It is filed as cell-based. The note with it: S. aureus in MH broth, 10^5 CFU·mL^−1, tested at 0.5×, 2×, 4× MIC over 12 h, triplicate. The procedure:
Bacterial time-kill assays were performed in triplicate, following the methodology of ref. [43] with minor modifications. Staphylococcus aureus was cultured in Mueller–Hinton (MH) broth at an initial concentration of […] and exposed to free peptides and peptide-functionalized nanobiostructures at concentrations corresponding to 0.5×, 1×, 2×, and 4× the MIC (minimum inhibitory concentration). Samples were collected at defined time intervals: 0, 0.5, 1, 2, 4, 6, 8, 10, and 12 h. Cell viability was assessed using the microdrop method described by Romeiro (2001). Serial dilutions of the bacterial suspensions (10^−1, 10^−2, and 10^−3) were prepared, and 5 µL aliquots from each dilution were plated onto brain–heart infusion (BHI) agar. Plates were incubated for up to 12 h, after which colony counts were performed. The number of colony-forming units (UFC) was calculated by multiplying the colony count by the reciprocal of the dilution factor, and results were expressed as UFC·mL^−1. This approach provided quantitative data on the time–dependent bactericidal activity of both the free peptides and nanoparticle-conjugated formulations.

With NP-NtermEAAA-Lun-1 [NP-Lun-EN], the ζ-potential result in series [1] is given as “+6.7 ± 0.9 mV”. For the same substance, the “concentrations giving sustained reduction in viable cells without regrowth” value in series [2] is 2 × MIC and 4 × MIC.

The values above are taken from PMC12299903 (Pharmaceuticals, 2025).
